Reference: patent US20240400654A1
Substitutions are numbered along the chain they refer to. Names may count otherwise. “And” between values parts separate entries of the source, which are not always exact repeats. Equal entries are not always repeated.

B1: KB001 mouse Fab VL T24K (Fab, V domains shown)
VH: EVQLKQSGPGLVAPSQSLSITCTVSGFSLSIYSVHWVRQPPGKGLEWLGMIWGGGSSDYNSALKSRLSISKDNSKSQVFLKMNSLQTDDTAMYYCARNGNFYAMDYWGQGTSVTVSS
VL: QIVLTQSPAIMSASLGERVTMTCKASSSVSSSFLHWYQQKPGSSPQLWIYSTSNLASGVPARFSGSGSGTSYSLTISSMEAEDAATYYCHQYHHSPYIYTFGGGTKLEIK
B2: KB001 mouse Fab VL S51G (Fab, V domains shown)
VH: B1 VH
VL: B1 VL with K24T, S51G
B3: KB001 mouse Fab VL S31P (Fab, V domains shown)
VH: B1 VH
VL: B1 VL with K24T, S31P
B4: KB001 mouse Fab VL S53Q (Fab, V domains shown)
VH: B1 VH
VL: B1 VL with K24T, S53Q
B5: KB001 mouse Fab VL S57Q (Fab, V domains shown)
VH: B1 VH
VL: B1 VL with K24T, S57Q
B6: KB001 mouse Fab VL S28W (Fab, V domains shown)
VH: B1 VH
VL: B1 VL with K24T, S28W
B7: KB001 mouse Fab VL S31E (Fab, V domains shown)
VH: B1 VH
VL: B1 VL with K24T, S31E
B8: KB001 mouse Fab VL S30F (Fab, V domains shown)
VH: B1 VH
VL: B1 VL with K24T, S30F
B9: KB001 mouse Fab VL T52A (Fab, V domains shown)
VH: B1 VH
VL: B1 VL with K24T, T52A
B10: KB001 mouse Fab VL S53N (Fab, V domains shown)
VH: B1 VH
VL: B1 VL with K24T, S53N
B11: KB001 mouse Fab VL H90W (Fab, V domains shown)
VH: B1 VH
VL: B1 VL with K24T, H90W
B12: KB001 mouse Fab VL A25F (Fab, V domains shown)
VH: B1 VH
VL: B1 VL with K24T, A25F
B13: KB001 mouse Fab VL S57N (Fab, V domains shown)
VH: B1 VH
VL: B1 VL with K24T, S57N
B14: KB001 mouse Fab VL L55P (Fab, V domains shown)
VH: B1 VH
VL: B1 VL with K24T, L55P
B15: KB001 mouse Fab VL T52S (Fab, V domains shown)
VH: B1 VH
VL: B1 VL with K24T, T52S
B16: KB001 mouse Fab VL S57E (Fab, V domains shown)
VH: B1 VH
VL: B1 VL with K24T, S57E
B17: KB001 mouse Fab VL N54R (Fab, V domains shown)
VH: B1 VH
VL: B1 VL with K24T, N54R
B18: KB001 mouse Fab VL S26D (Fab, V domains shown)
VH: B1 VH
VL: B1 VL with K24T, S26D
B19: KB001 mouse Fab VL N54Q (Fab, V domains shown)
VH: B1 VH
VL: B1 VL with K24T, N54Q
B20: KB001 mouse Fab VL S26N (Fab, V domains shown)
VH: B1 VH
VL: B1 VL with K24T, S26N
B21: KB001 mouse Fab VL S28V (Fab, V domains shown)
VH: B1 VH
VL: B1 VL with K24T, S28V
B22: KB001 mouse Fab VL S28K (Fab, V domains shown)
VH: B1 VH
VL: B1 VL with K24T, S28K
B23: KB001 mouse Fab VL S57G (Fab, V domains shown)
VH: B1 VH
VL: B1 VL with K24T, S57G
B24: KB001 mouse Fab VL S57T (Fab, V domains shown)
VH: B1 VH
VL: B1 VL with K24T, S57T
B25: KB001 mouse Fab VL S27K (Fab, V domains shown)
VH: B1 VH
VL: B1 VL with K24T, S27K
B26: KB001 mouse Fab VL S57P (Fab, V domains shown)
VH: B1 VH
VL: B1 VL with K24T, S57P
B27: KB001 mouse Fab VL S28G (Fab, V domains shown)
VH: B1 VH
VL: B1 VL with K24T, S28G
B28: KB001 mouse Fab VL S53H (Fab, V domains shown)
VH: B1 VH
VL: B1 VL with K24T, S53H
B29: KB001 mouse Fab VL T24E (Fab, V domains shown)
VH: B1 VH
VL: B1 VL with K24E
B30: KB001 mouse Fab VL T24H (Fab, V domains shown)
VH: B1 VH
VL: B1 VL with K24H
B31: KB001 mouse Fab VL S28P (Fab, V domains shown)
VH: B1 VH
VL: B1 VL with K24T, S28P
B32: KB001 mouse Fab VL S53K (Fab, V domains shown)
VH: B1 VH
VL: B1 VL with K24T, S53K
B33: KB001 mouse Fab VL S30G (Fab, V domains shown)
VH: B1 VH
VL: B1 VL with K24T, S30G
B34: KB001 mouse Fab VL S31F (Fab, V domains shown)
VH: B1 VH
VL: B1 VL with K24T, S31F
B35: KB001 mouse Fab VL N54S (Fab, V domains shown)
VH: B1 VH
VL: B1 VL with K24T, N54S
B36: KB001 mouse Fab VL S31T (Fab, V domains shown)
VH: B1 VH
VL: B1 VL with K24T, S31T
B37: KB001 mouse Fab VL S95Q (Fab, V domains shown)
VH: B1 VH
VL: B1 VL with K24T, S95Q
B38: KB001 mouse Fab VL L55N (Fab, V domains shown)
VH: B1 VH
VL: B1 VL with K24T, L55N
B39: KB001 mouse Fab VL A25T (Fab, V domains shown)
VH: B1 VH
VL: B1 VL with K24T, A25T
B40: KB001 mouse Fab VL S57R (Fab, V domains shown)
VH: B1 VH
VL: B1 VL with K24T, S57R
B41: KB001 mouse Fab VL S31Y (Fab, V domains shown)
VH: B1 VH
VL: B1 VL with K24T, S31Y

The binders below were run against HRgpA-6H (Porphyromonas gingivalis) (UniProt P28784) (assay: ELISA, coated HRgpA-6H).
Sequence of UniProt P28784 (P28784 228-860 limits assumed): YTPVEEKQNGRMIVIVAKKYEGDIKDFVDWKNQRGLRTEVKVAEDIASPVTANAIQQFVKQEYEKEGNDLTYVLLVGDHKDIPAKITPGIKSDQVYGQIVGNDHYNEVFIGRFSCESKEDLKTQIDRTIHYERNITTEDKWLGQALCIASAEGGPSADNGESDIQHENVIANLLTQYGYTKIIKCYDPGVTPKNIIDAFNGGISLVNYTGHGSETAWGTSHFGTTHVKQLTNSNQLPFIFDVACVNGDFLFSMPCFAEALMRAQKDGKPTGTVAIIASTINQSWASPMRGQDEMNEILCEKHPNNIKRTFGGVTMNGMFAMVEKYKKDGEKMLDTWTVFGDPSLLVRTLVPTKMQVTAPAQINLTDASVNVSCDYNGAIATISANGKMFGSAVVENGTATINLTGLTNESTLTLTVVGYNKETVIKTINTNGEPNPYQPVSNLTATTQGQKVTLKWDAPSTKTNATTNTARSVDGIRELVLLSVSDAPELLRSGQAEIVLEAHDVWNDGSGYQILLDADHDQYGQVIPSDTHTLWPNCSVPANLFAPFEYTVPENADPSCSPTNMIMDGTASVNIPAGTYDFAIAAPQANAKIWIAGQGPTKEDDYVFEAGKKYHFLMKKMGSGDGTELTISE

Row | Binder | OD450 nm | Ratio OD(Variant)/OD(WT)
1 | B1 | 0.797 and 0.734 | 1.04 and 0.954
2 | B2 | 0.915 and 0.777 and 0.851 | 1.05 and 0.888 and 0.973
3 | B3 | 0.87 and 0.875 and 0.856 | 1.03 and 1.04 and 1.01
4 | B4 | 0.835 and 0.751 and 0.726 | 1.06 and 0.954 and 0.922
5 | B5 | 0.858 and 0.838 | 1.05 and 1.03
6 | B6 | 0.817 and 0.745 | 1.09 and 0.993
7 | B7 | 0.903 and 0.798 | 1.07 and 0.944
8 | B8 | 0.911 | 1.06
9 | B9 | – | 1.17 and 1.08 (2×) and 0.993
10 | B10 | 0.838 and 0.707 | 1.06 and 0.898
11 | B11 | 0.913 | 1.06
12 | B12 | 0.818 and 0.827 and 0.775 | 1.04 and 1.06 and 0.99
13 | B13 | 0.857 | 1.05
14 | B14 | 0.827 and 0.764 and 0.724 | 1.06 and 0.975 and 0.924
15 | B15 | 0.833 | 1.06
16 | B16 | 0.843 | 1.03
17 | B17 | 0.876 | 1.12
18 | B18 | 0.821 | 1.05
19 | B19 | 0.868 | 1.11
20 | B20 | 0.823 and 0.749 | 1.05 and 0.957
21 | B21 | 0.786 and 0.731 and 0.717 | 1.05 and 0.974 and 0.955

Row | Binder | OD450 nm | Ratio OD(Variant)/OD(WT)
22 | B22 | 0.801 | 1.07
23 | B23 | 0.873 and 0.825 | 1.07 and 1.01
24 | B24 | 0.843 | 1.03
25 | B25 | 0.783 and 0.745 and 0.697 | 1.04 and 0.993 and 0.929
26 | B26 | 0.858 | 1.05
27 | B27 | 0.818 | 1.09
28 | B28 | 0.827 and 0.777 | 1.05 and 0.987
29 | B29 | 0.852 and 0.81 | 1.11 and 1.05
30 | B30 | 0.795 | 1.03
31 | B31 | 0.808 and 0.726 | 1.08 and 0.967
32 | B32 | 0.841 | 1.07
33 | B33 | 0.916 and 0.858 | 1.06 and 0.995
34 | B34 | 0.854 and 0.688 and 0.693 | 1.01 and 0.814 and 0.82
35 | B35 | 0.835 and 0.732 and 0.776 | 1.07 and 0.934 and 0.99
36 | B36 | 0.859 and 0.74 and 0.782 | 1.02 and 0.876 and 0.925
37 | B37 | 0.931 and 0.936 and 0.927 | 1.01 (2×) and 1.02
38 | B38 | 0.816 and 0.815 and 0.777 | 1.04 (2×) and 0.992
39 | B39 | 0.823 and 0.801 | 1.05 and 1.02
40 | B40 | 0.845 and 0.849 | 1.04
41 | B41 | 0.849 | 1
